B1: IL-11: cytokine, a member of the IL-6 cytokine family, used to treat PMA-stimulated U937 and THP-1 macrophages (protein, UniProt P20809 22-199, looked up)
Interleukin-11: PGPPPGPPRVSPDPRAELDSTVLLTRSLLADTRQLAAQLRDKFPADGDHNLDSLPTLAMSAGALGALQLPGVLTRLRADLLSYLRHVQWLRRAGGSSLKTLEPELGTLQARLDRLLRRLQLLMSRLALPQPPPDPPAPPLAPPSSAWGGIRAAHAILGGLHLTLDWAVRGLLLLKTRL

What was measured:
Format in all cases: cell-based, human
[1] = system: patient-derived organoids (PDOs); experiment: Patient-derived organoid CellTiter-Glo cell viability; details: Homo sapiens, 72 h; read-out: reduction in cell viability
Procedure: Patient-derived organoids (PDOs). Tumor tissues were minced on ice into 1 mm^3 small pieces. Tumor pieces (˜20 μl in volume) were resuspended in 200 μl Matrigel and seeded into 24 well plates for 15 min until gel solidify, followed by culture in advanced DMEM/F12 medium supplemented with B27 and N2 (Thermo Fisher Scientific), 0.01% BSA (Roche), 100 units/m penicillin-streptomycin (Thermo Fisher Scientific), and others (Table 4) for 4-8 weeks to grow organoids. […] The CellTiter-Glo Luminescent Cell Viability assay was used to determine drug responsiveness.

[2] = system: PMA-stimulated U937 and THP-1; experiment: Western blot of IL-11 treated macrophages; details: serial dosages, 72 hr
Procedure: Western blot analysis. PMA-stimulated U937 and THP-1 were cultured and treated with serial dosages of IL-11 over 72 hr. Cell lysates were harvested using RIPA buffer. The concentration of protein lysates was determined by Pierce™ BCA Protein Assay Kit (Thermo fisher). Forty micrograms of the total protein extracts were separated by NuPAGE™ 4-12% Bis-Tris Protein Gels (Thermo fisher) and transferred to PVDF membrane. The membranes were then blocked with 5% of Blotting-Grade Blocker (BioRad) in TBST and probed using primary antibodies against pSTAT3, STAT3 and GAPDH (Cell Signaling Technology; 2118S). Membranes were incubated in HRP-linked secondary antibodies following dilution with TBST (1:5000) at room temperature for one hour. Blots were developed using Western Lightning Plus-ECL Chemiluminescent Reagents (Perkin Elmer, Waltham, Mass.) and Syngene G:BOX Imaging System.

PMA-stimulated U937 = experiment: Immunofluorescence of IL-11 treated U937; details: 25 ng/ml, 72 hr
Procedure: Immunofluorescence. PMA-stimulated U937 were cultured and treated with 25 ng/ml IL-11 over 72 hr. Cells were then fixed with 4% paraformaldehyde for 15 minutes. After fixation, cells were incubated with fluorescence conjugated primary antibody (CD14, CD86 and CD163) for 1 hour. Slides were mounted with mounting medium with DAPI and the images were taken with fluorescence microscope.

Molecule	cytotoxicity at 15 µM [1] [%]	pSTAT3 (western blot) [2]	CD163 (immunofluorescence) (PMA-stimulated U937)
N#CC[C@H](C1CCCC1)n1cc(-c2ncnc3[nH]ccc23)cn1 [ruxolitinib]	10 to 20	–	–
B1	–	up-regulated	up-regulated
